Experiments:
[1] = biological target: T1, RalGAPα2 (RGα2), full length, co-expressed in Expi293F and purified by FLAG affinity (UniProt Q2PPJ7 1-1873); test: cryo-EM structure; RGα2/RGβ/κB-Ras2 complex from Expi293F, FLAG affinity and Superose 6 in 20 mM HEPES pH 7.5, 150 mM NaCl, 2 mM MgCl2, 1 mM TCEP; single particle analysis of the half-particle, 3.8 Å overall; conditions: both partners purified
T1 construct: RalGAPα2, catalytic α-subunit of the RalGAP2 complex; catalytic asparagine N1742; residues 1-73 not resolved in the map; residue numbers (N1742, R1738, N943) are used together with human patient variants; also called RGα2^fl; source: Expi293F cells, transfected, purified (M2 anti-FLAG beads, 3xFLAG peptide elution; Superose 6 for cryo-EM)
T1 sequence (Q2PPJ7 whole entry, the tested form may be a part): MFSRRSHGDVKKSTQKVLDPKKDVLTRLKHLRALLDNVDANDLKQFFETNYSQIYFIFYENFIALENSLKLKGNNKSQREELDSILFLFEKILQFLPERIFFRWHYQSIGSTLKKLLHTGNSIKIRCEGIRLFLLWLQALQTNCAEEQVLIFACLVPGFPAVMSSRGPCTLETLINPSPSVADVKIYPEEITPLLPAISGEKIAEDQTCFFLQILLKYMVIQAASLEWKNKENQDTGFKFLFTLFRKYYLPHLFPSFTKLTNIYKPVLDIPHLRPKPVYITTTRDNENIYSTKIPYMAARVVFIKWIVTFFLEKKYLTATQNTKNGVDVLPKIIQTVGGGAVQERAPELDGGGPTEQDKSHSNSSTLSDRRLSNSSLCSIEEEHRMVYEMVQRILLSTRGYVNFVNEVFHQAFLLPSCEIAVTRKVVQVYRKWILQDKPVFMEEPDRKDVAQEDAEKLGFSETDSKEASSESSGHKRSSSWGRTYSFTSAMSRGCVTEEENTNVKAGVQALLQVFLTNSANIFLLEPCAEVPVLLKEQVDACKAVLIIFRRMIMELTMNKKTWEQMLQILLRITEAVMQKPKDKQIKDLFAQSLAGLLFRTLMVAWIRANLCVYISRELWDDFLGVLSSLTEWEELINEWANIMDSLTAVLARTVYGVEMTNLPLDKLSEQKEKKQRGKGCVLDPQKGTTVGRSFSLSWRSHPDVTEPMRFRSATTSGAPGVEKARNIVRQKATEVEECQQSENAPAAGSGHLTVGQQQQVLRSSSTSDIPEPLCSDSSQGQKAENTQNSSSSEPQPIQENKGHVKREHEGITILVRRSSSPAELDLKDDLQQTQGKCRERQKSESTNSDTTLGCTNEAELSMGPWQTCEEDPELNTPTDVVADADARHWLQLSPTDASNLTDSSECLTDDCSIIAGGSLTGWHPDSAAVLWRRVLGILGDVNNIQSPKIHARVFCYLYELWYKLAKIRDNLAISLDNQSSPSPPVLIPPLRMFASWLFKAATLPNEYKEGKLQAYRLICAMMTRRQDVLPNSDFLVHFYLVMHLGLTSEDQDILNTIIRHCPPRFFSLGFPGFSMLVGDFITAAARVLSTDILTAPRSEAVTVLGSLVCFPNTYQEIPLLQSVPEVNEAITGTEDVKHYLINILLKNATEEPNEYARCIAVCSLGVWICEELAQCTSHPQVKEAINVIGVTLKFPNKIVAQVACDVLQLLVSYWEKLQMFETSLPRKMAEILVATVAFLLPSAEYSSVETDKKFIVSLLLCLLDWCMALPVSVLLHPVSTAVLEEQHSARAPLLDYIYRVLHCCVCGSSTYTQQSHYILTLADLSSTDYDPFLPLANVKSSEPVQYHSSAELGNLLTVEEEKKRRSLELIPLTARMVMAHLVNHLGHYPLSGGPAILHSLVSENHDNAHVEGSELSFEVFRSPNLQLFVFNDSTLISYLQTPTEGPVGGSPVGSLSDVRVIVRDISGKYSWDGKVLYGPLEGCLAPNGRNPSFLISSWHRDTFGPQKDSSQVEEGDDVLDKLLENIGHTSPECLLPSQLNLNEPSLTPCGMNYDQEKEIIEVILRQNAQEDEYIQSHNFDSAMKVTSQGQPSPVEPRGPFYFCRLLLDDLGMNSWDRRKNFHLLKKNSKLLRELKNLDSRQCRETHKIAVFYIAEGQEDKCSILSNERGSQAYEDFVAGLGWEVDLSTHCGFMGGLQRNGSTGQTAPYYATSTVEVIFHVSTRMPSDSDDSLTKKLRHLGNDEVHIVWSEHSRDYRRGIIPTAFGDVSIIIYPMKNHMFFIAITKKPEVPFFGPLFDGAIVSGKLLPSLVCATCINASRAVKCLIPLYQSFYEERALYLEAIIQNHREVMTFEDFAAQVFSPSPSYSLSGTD

[2] = biological target: the molecule itself; test: as above

B1: RalGAPβ (RGβ), full length, co-expressed in Expi293F and co-purified with FLAG-RGα2 (natural protein, UniProt Q86X10 1-1494, looked up)
chain: MYSEWRSLHLVIQNDQGHTSVLHSYPESVGREVANAVVRPLGQVLGTPSVAGSENLLKTDKEVKWTMEVICYGLTLPLDGETVKYCVDVYTDWIMALVLPKDSIPLPVIKEPNQYVQTILKHLQNLFVPRQEQGSSQIRLCLQVLRAIQKLARESSLMARETWEVLLLFLLQINDILLAPPTVQGGIAENLAEKLIGVLFEVWLLACTRCFPTPPYWKTAKEMVANWRHHPAVVEQWSKVICALTSRLLRFTYGPSFPAFKVPDEDASLIPPEMDNECVAQTWFRFLHMLSNPVDLSNPAIISSTPKFQEQFLNVSGMPQELNQYPCLKHLPQIFFRAMRGISCLVDAFLGISRPRSDSAPPTPVNRLSMPQSAAVSTTPPHNRRHRAVTVNKATMKTSTVSTAHASKVQHQTSSTSPLSSPNQTSSEPRPLPAPRRPKVNSILNLFGSWLFDAAFVHCKLHNGINRDSSMTAITTQASMEFRRKGSQMSTDTMVSNPMFDASEFPDNYEAGRAEACGTLCRIFCSKKTGEEILPAYLSRFYMLLIQGLQINDYVCHPVLASVILNSPPLFCCDLKGIDVVVPYFISALETILPDRELSKFKSYVNPTELRRSSINILLSLLPLPHHFGTVKSEVVLEGKFSNDDSSSYDKPITFLSLKLRLVNILIGALQTETDPNNTQMILGAMLNIVQDSALLEAIGCQMEMGGGENNLKSHSRTNSGISSASGGSTEPTTPDSERPAQALLRDYALNTDSAAGLLIRSIHLVTQRLNSQWRQDMSISLAALELLSGLAKVKVMVDSGDRKRAISSVCTYIVYQCSRPAPLHSRDLHSMIVAAFQCLCVWLTEHPDMLDEKDCLKEVLEIVELGISGSKSKNNEQEVKYKGDKEPNPASMRVKDAAEATLTCIMQLLGAFPSPSGPASPCSLVNETTLIKYSRLPTINKHSFRYFVLDNSVILAMLEQPLGNEQNDFFPSVTVLVRGMSGRLAWAQQLCLLPRGAKANQKLFVPEPRPVPKNDVGFKYSVKHRPFPEEVDKIPFVKADLSIPDLHEIVTEELEERHEKLRSGMAQQIAYEIHLEQQSEEELQKRSFPDPVTDCKPPPPAQEFQTARLFLSHFGFLSLEALKEPANSRLPPHLIALDSTIPGFFDDIGYLDLLPCRPFDTVFIFYMKPGQKTNQEILKNVESSRTVQPHFLEFLLSLGWSVDVGRHPGWTGHVSTSWSINCCDDGEGSQQEVISSEDIGASIFNGQKKVLYYADALTEIAFVVPSPVESLTDSLESNISDQDSDSNMDLMPGILKQPSLTLELFPNHTDNLNSSQRLSPSSRMRKLPQGRPVPPLGPETRVSVVWVERYDDIENFPLSELMTEISTGVETTANSSTSLRSTTLEKEVPVIFIHPLNTGLFRIKIQGATGKFNMVIPLVDGMIVSRRALGFLVRQTVINICRRKRLESDSYSPPHVRRKQKITDIVNKYRNKQLEPEFYTSLFQEVGLKNCSS
notes: RalGAPβ, common regulatory β-subunit of the RalGAP complexes; In the RalGAP tetramer two RGα2/RGβ heterodimers are joined by two RGβ; also called RGβ^fl; RGβ^WT; source: Expi293F cells, transfected, co-purified with RGα2 (M2 anti-FLAG beads; Superose 6 for cryo-EM)
- binding result [1]: binds
- binding result [2]: binds
